# B1: FGF7: recombinant human FGF7, the classical ligand of FGFR2b (protein, UniProt P21781 32-194, looked up)
# Fibroblast growth factor 7: CNDMTPEQMATNVNCSSPERHTRSYDYMEGGDIRVRRLFCRTQWYLRIDKRGKVKGTQEMKNNYNIMEIRTVAVGIVAIKGVESEFYLAMNKEGKLYAKKECNEDCNFKELILENHYNTYASAKWTHNGGEMFVALNQKGIPVRGKKTKKEQKTAHFLPMAIT
# System: interferon-stimulated response element (ISRE)
# Test: ISRE luciferase reporter assay in immortalized mouse keratinocytes
# Type: cell-based
# Settings: FGF7 10 ng/ml and/or IFNα 1000 U/ml, 12 h
# Experimental: FIG. 3C pertains to immortalized mouse keratinocytes that were co-transfected with TK-Renilla and pGL4.45[luc2P/ISRE/Hygro] plasmids, starved in serum-free medium and then treated with FGF7 (10 ng/ml) and/or IFNα (1000 U/ml) for 12 h. Firefly luciferase activity was determined in cell lysates and normalized to Renilla luciferase activity (transfection control). The mean value in vehicle-treated cells (CTRL) was set to 1.
# Mouse keratinocytes and HEK 293 cells were transfected with the expression vector for TK-Renilla and the expression vector pGL4.45[luc2P/ISRE/Hygro] (Promega). The latter contains five copies of an ISRE that drives expression of the luciferase reporter gene. Cells were seeded into 12-well plates, cultured for 24 h, and transfected using Lipofectamine 2000 […]. They were then starved in serum-free medium, treated with FGF7 (10 ng/ml) and/or IFNα (1000 U/ml) for 12 h, lysed and analyzed using a dual-luciferase assay system (Promega) as described by the manufacturer. Relative light units were measured in a GloMax 96 microplate luminometer with dual injectors (Promega).
molecule,measurement,value
B1,ISRE-driven luciferase activity,counteracted

# From US20210322404A1, “FGFR REGULATION FOR THE TREATMENT OF VIRAL INFECTIONS” (ETH ZURICH, priority 2016, published 2021)
